Measurements reported in patent US20140087995A1 (published 2014).
Numbered stars: 1 amine (or outer) side, 2 acyl side, 3 side chain; on linkers, the order of the positions; unused ones are H or OH. Bridge positions count the residues as written; N and C are the ends. Side chains are listed from the residue outwards. Ends that are not written are not given here. * marks the point of attachment. C20 diacid = O=C(O)CCCCCCCCCCCCCCCCCCC(=O)*; γGlu = O=C(O)[C@H](CCC(=O)[*:2])N[*:1]

T1: human amylin receptor (amylin 3(a) receptor: human calcitonin receptor with RAMP-3) (human, UniProt P30988 25-474; O60896 24-148)
T1 sequence (looked up) 1: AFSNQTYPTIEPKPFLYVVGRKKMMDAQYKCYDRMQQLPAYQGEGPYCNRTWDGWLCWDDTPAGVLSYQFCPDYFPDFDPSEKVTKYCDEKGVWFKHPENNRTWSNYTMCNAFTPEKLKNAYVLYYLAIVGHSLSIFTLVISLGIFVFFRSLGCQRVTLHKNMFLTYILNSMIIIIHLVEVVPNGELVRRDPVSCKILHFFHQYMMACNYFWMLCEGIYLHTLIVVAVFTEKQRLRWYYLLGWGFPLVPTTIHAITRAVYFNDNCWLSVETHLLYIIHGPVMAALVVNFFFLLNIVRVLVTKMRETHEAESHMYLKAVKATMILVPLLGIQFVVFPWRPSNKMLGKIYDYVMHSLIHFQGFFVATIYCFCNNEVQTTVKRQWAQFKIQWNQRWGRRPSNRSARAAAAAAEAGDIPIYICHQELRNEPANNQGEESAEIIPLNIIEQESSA
T1 sequence (looked up) 2: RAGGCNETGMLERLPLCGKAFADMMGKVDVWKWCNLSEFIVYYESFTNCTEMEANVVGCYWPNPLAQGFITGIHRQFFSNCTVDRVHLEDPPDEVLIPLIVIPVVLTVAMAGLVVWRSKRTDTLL

T2: human calcitonin receptor (human, UniProt P30988 25-474)
T2 sequence (looked up): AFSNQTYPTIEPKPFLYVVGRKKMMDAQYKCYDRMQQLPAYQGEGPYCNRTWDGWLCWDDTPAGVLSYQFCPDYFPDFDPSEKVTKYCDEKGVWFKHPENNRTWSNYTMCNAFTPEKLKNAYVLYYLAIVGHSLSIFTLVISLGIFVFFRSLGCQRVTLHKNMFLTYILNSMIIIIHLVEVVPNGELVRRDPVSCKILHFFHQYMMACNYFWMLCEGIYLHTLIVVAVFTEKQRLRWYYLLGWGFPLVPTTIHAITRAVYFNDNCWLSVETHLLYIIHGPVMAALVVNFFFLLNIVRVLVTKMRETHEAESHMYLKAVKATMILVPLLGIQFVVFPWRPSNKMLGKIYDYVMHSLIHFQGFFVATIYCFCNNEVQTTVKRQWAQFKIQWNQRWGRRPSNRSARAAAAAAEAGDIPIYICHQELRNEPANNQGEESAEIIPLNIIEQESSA

T3: human calcitonin receptor (human, UniProt P30988 25-474)
T3 construct: whole, on cells; Membranes in a scintillation proximity assay (Assay VII); also called hCTR; hCT
T3 sequence (looked up): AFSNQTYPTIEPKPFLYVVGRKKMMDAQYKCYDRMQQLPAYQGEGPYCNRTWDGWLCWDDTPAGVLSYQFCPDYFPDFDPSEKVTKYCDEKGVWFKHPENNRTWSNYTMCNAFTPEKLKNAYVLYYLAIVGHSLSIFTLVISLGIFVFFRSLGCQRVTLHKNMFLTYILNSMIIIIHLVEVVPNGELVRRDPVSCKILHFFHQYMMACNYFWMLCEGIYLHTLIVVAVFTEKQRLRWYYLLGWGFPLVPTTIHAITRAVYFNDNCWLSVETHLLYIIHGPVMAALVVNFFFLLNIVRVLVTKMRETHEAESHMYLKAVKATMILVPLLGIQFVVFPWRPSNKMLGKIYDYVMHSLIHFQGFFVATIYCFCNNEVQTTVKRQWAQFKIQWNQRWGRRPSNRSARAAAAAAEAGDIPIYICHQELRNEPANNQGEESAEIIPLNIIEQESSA


Legend:
[1] = target: T1, human amylin receptor (amylin 3(a) …); experiment: cell-based or functional assay
[2] = target: T2, human calcitonin receptor; experiment: cell-based or functional assay
[3] = target: T1, human amylin receptor (amylin 3(a) …); experiment: SPA competition, displacement of 125I-rat amylin from membranes of BHK cells with the human amylin 3(a) receptor
Method: The binding assay was performed using scintillation proximity assay (SPA) beads (RPNQ0001) from PerkinElmer and cell membranes from the Amylin 3(a)/CRE-luc cells (as described in Assay (II)) were used. Membranes were prepared in the following way; the cells were rinsed with PBS and incubated with Versene for approximately 5 min before harvesting. The cells were flushed with PBS and the cell-suspension was centrifuged for 5 min at 1000 rpm. Cells were homogenized (ultrathurrax) in a buffer containing 20 mM Na-HEPES and 10 mM EDTA (pH 7.4) and centrifuged at 20.000 rpm for 15 min. The resulting pellet was resuspended, homogenized and centrifuged (20.000 rpm, 15 min) in a buffer containing 20 mM Na-HEPES and 0.1 mM EDTA (pH 7.4, buffer 2). The resulting pellet was resuspended in buffer 2 and protein concentration was measured (BCA protein Assay, Pierce). The homogenate was kept cold during the whole procedure. The membranes were kept at −80° C. until use. The assay was performed in a 384 well Optiplate (PerkinElmer) in a total volume of 40 ul. Membranes were mixed with SPA beads. Final concentration of membranes 35 ng/μL final and SPA beads was 0.05 mg/well. Test-compounds were dissolved in DMSO and further diluted in assay buffer (50 mM Hepes, pH 7.4, 1 mM CaCl2, 5 mM MgCl₂, 0.1% OA and 0.02% Tween20). […] The final mixture was incubated with shaking at 400 rpm for 120 min at 25° C. prior to centrifugation (1500 rpm, 10 min). Samples were analyzed on TopCounter™ (Packard). The IC₅₀ was calculated using (one site binding competition analysis) GraphPad Prism5 as a measure of receptor affinity.

[4] = target: T3, human calcitonin receptor; experiment: ratio of IC50 at human calcitonin receptor to IC50 at human amylin receptor (reference), SPA binding assays
Method: The resulting pellet was resuspended, homogenized and centrifuged (20.000 rpm, 15 min) in a buffer containing 20 mM Na-HEPES and 0.1 mM EDTA (pH 7.4, buffer 2). The resulting pellet was resuspended in buffer 2 and protein concentration was measured (BCA protein Assay, Pierce). The homogenate was kept cold during the whole procedure. The membranes were kept at −80° C. until use. The assay was performed in a 384 well Optiplate (PerkinElmer) in a total volume of 40 ul. Membranes were mixed with SPA beads. Final concentration of membranes 35 ng/μL final and SPA beads was 0.05 mg/well. Test-compounds were dissolved in DMSO and further diluted in assay buffer (50 mM Hepes, pH 7.4, 1 mM CaCl2, 5 mM MgCl₂, 0.1% OA and 0.02% Tween20). […] The final mixture was incubated with shaking at 400 rpm for 120 min at 25° C. prior to centrifugation (1500 rpm, 10 min). Samples were analyzed on TopCounter™ (Packard). The IC₅₀ was calculated using (one site binding competition analysis) GraphPad Prism5 as a measure of receptor affinity.
Membranes were prepared in the following way; the cells were rinsed with PBS and incubated with Versene for approximately 5 min before harvesting. The cells were flushed with PBS and the cell-suspension was centrifuged for 5 min at 1000 rpm. Cells were homogenized (Ultrathurrax) in a buffer containing 20 mM Na-HEPES and 10 mM EDTA (pH 7.4) and centrifuged at 20.000 rpm for 15 min. The resulting pellet was resuspended, homogenized and centrifuged (20.000 rpm, 15 min) in a buffer containing 20 mM Na-HEPES and 0.1 mM EDTA (pH 7.4, buffer 2). The resulting pellet was resuspended in buffer 2 and protein concentration was measured (BCA protein Assay, Pierce). The homogenate was kept cold during the whole procedure. The membranes were kept at −80° C. until use. Assay was performed in a 384 well Optiplate (PerkinElmer) in a total volume of 40 ul. Membranes were mixed with SPA beads.

[5] = target: T3, human calcitonin receptor; experiment: SPA competition binding, displacement of 125I-calcitonin from membranes with human calcitonin receptor (Assay VII)
Method: Membranes were prepared in the following way; the cells were rinsed with PBS and incubated with Versene for approximately 5 min before harvesting. The cells were flushed with PBS and the cell-suspension was centrifuged for 5 min at 1000 rpm. Cells were homogenized (Ultrathurrax) in a buffer containing 20 mM Na-HEPES and 10 mM EDTA (pH 7.4) and centrifuged at 20.000 rpm for 15 min. The resulting pellet was resuspended, homogenized and centrifuged (20.000 rpm, 15 min) in a buffer containing 20 mM Na-HEPES and 0.1 mM EDTA (pH 7.4, buffer 2). The resulting pellet was resuspended in buffer 2 and protein concentration was measured (BCA protein Assay, Pierce). The homogenate was kept cold during the whole procedure. The membranes were kept at −80° C. until use. Assay was performed in a 384 well Optiplate (PerkinElmer) in a total volume of 40 ul. Membranes were mixed with SPA beads. Final concentration of membranes 35 ng/μL final and Final concentration of SPA beads was 0.05 mg/well. Test-compounds were dissolved in DMSO and further diluted in assay buffer (50 mM Hepes, pH 7.4, 1 mM CaCl2, 5 mM MgCl₂, 0.1% OA and 0.02% Tween20). […] The final mixture was incubated for 120 min with shaking at 400 rpm at 25° C. prior to centrifugation (1500 rpm, 10 min). Samples were analyzed on TopCounter™ (Packard). The […] was calculated using (one site binding competition analysis) GraphPad Prism5 as a measure of receptor affinity.

Row | Binder | hAmylin-R funct. EC50 [1] [pM] | Ratio hCT/hAmylin funct. [2] | hCTR funct. EC50 [2] [pM] | IC50 [3] [nM] | Ratio hCT/hAmylin binding [4] | IC50 [5] [nM]
1 | K([γGlu-γGlu-C20 diacid])CNTATCATQRLADFLRHSSPNFGAPLSSTNVGSDTY-NH2 (disulfide 2-7; N-terminus assumed; SMILES CC(C)C[C@H](NC(=O)[C@H](CCCNC(=N)N)NC(=O)[C@H](CCC(N)=O)NC(=O)[C@@H](NC(=O)[C@H](C)NC(=O)[C@@H]1CSSC[C@H](NC(=O)[C@@H](N)CCCCNC(=O)CC[C@H](NC(=O)CC[C@H](NC(=O)CCCCCCCCCCCCCCCCCCC(=O)O)C(=O)O)C(=O)O)C(=O)N[C@@H](CC(N)=O)C(=O)N[C@@H]([C@@H](C)O)C(=O)N[C@@H](C)C(=O)N[C@@H]([C@@H](C)O)C(=O)N1)[C@@H](C)O)C(=O)N[C@@H](C)C(=O)N[C@@H](CC(=O)O)C(=O)N[C@@H](Cc1ccccc1)C(=O)N[C@@H](CC(C)C)C(=O)N[C@@H](CCCNC(=N)N)C(=O)N[C@@H](Cc1c[nH]cn1)C(=O)N[C@@H](CO)C(=O)N[C@@H](CO)C(=O)N1CCC[C@H]1C(=O)N[C@@H](CC(N)=O)C(=O)N[C@@H](Cc1ccccc1)C(=O)NCC(=O)N[C@@H](C)C(=O)N1CCC[C@H]1C(=O)N[C@@H](CC(C)C)C(=O)N[C@@H](CO)C(=O)N[C@@H](CO)C(=O)N[C@H](C(=O)N[C@@H](CC(N)=O)C(=O)N[C@H](C(=O)NCC(=O)N[C@@H](CO)C(=O)N[C@@H](CC(=O)O)C(=O)N[C@H](C(=O)N[C@@H](Cc1ccc(O)cc1)C(N)=O)[C@@H](C)O)C(C)C)[C@@H](C)O, also called compound 1) | 224 | 12 | 2700 | 1.18 | – | –
2 | K([γGlu-γGlu-C20 diacid])CNTATCATQRLADFLRHSSNPFGAPLSSTNVGSDTY-NH2 (disulfide 2-7; N-terminus assumed; SMILES CC(C)C[C@H](NC(=O)[C@H](CCCNC(=N)N)NC(=O)[C@H](CCC(N)=O)NC(=O)[C@@H](NC(=O)[C@H](C)NC(=O)[C@@H]1CSSC[C@H](NC(=O)[C@@H](N)CCCCNC(=O)CC[C@H](NC(=O)CC[C@H](NC(=O)CCCCCCCCCCCCCCCCCCC(=O)O)C(=O)O)C(=O)O)C(=O)N[C@@H](CC(N)=O)C(=O)N[C@@H]([C@@H](C)O)C(=O)N[C@@H](C)C(=O)N[C@@H]([C@@H](C)O)C(=O)N1)[C@@H](C)O)C(=O)N[C@@H](C)C(=O)N[C@@H](CC(=O)O)C(=O)N[C@@H](Cc1ccccc1)C(=O)N[C@@H](CC(C)C)C(=O)N[C@@H](CCCNC(=N)N)C(=O)N[C@@H](Cc1c[nH]cn1)C(=O)N[C@@H](CO)C(=O)N[C@@H](CO)C(=O)N[C@@H](CC(N)=O)C(=O)N1CCC[C@H]1C(=O)N[C@@H](Cc1ccccc1)C(=O)NCC(=O)N[C@@H](C)C(=O)N1CCC[C@H]1C(=O)N[C@@H](CC(C)C)C(=O)N[C@@H](CO)C(=O)N[C@@H](CO)C(=O)N[C@H](C(=O)N[C@@H](CC(N)=O)C(=O)N[C@H](C(=O)NCC(=O)N[C@@H](CO)C(=O)N[C@@H](CC(=O)O)C(=O)N[C@H](C(=O)N[C@@H](Cc1ccc(O)cc1)C(N)=O)[C@@H](C)O)C(C)C)[C@@H](C)O, also called compound 3) | 205 | 6.7 | 1380 | 1.13 | – | –
3 | K([γGlu-C20 diacid])CNTATCATQRLADFLRHSSPNFGAIPSSTNVGPRTY-NH2 (disulfide 2-7 (inferred)) | – | – | – | – | 151 | 42.5
4 | K([γGlu-C20 diacid])CNTATCATQRLADFLRHSSPNFGAIPSSTNVGPETY-NH2 (disulfide 2-7 (inferred)) | – | – | – | – | 16.7 | 3.27
5 | K([γGlu-C20 diacid])CNTATCATQRLAEFLRHSSPNFGAIPSSTNVGSHTY-NH2 (disulfide 2-7 (inferred)) | – | – | – | – | 26.4 | 26.1
6 | K([γGlu-γGlu-C20 diacid])CNTATCATQRLAEFLRHSSPNFGAIPSSTNVGPHTY-NH2 (disulfide 2-7 (inferred)) | – | – | – | – | 27.3 | 10.3
7 | K([γGlu-γGlu-C20 diacid])CNTATCATQRLAEFLRHSSPNFGAIPSSTNVGPNTF-NH2 (disulfide 2-7 (inferred)) | – | – | – | – | 18 | 2.73
8 | K([γGlu-γGlu-C20 diacid])CNTATCATQRLADFLRHSSPNFGAIPSSTNVGPRTY-NH2 (disulfide 2-7 (inferred), also called compound 130) | – | – | – | – | 280 | 127
